Measurements taken from the supplement of paper PMC9170038.

System: MS2 coat protein
Assay: apparent KD of MS2 coat protein; designed switch direction (-1 OFF switch, 1 ON switch): -1; higher = weaker reporter binding
Method in brief: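 Designed RNA switches were transcribed on Illumina chips by stalled E. coli RNA polymerase and titrated with SNAP-549-labelled MS2 coat protein from 0.7 or 1.5 nM, doubling to 3 µM. Step length ran from 0.8–1.5 h at the lowest concentration to 10–20 min at the highest. The apparent KD is the median over clusters for each design, from curve-fitted normalised cluster fluorescence.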

[1] = Eterna round: R95, input ligand: FMN 200 uM
[2] = Eterna round: R95, input ligand: microRNA oligo, concentration not stated
[3] = Eterna round: R95, input ligand: none

| Sequence | apparent KD of MS2 coat protein [1] [nM] | apparent KD of MS2 coat protein [2] [nM] | apparent KD of MS2 coat protein [3] [nM] | apparent KD of MS2 coat protein (input ligand: FMN 200 uM) [nM] | apparent KD of MS2 coat protein (input ligand: none) [nM] | apparent KD of MS2 coat protein (input ligand: microRNA oligo, concentration not stated) [nM] |
| --- | --- | --- | --- | --- | --- | --- |
| AAAAAACAAGGAUAUACAAAAAAAAAAUGUGAUAAAAAACCACAUGAGGAUCACCCAUGUAGAAGGUGUAAAAA [JR_Exclusion2_Sub003] (puzzle: Exclusion 2) | 55.6 | 62.8 | 65 | – | – | – |
| AAAAAACAAGGAUAUACAAAAAAAAAAUGUGUUAAAUUUUCACAUGAGGAUCACCCAUGUAGAAGGUGUAAAAA [JR_Exclusion2_Sub005] (puzzle: Exclusion 2) | 46 | 49.1 | 51.7 | – | – | – |
| AAAAAACAAGGAUAUACGAAGGAGGAUUAUCUUAAUUUUUGACAUGAGGAUCACCCAUGUAGAAGGUGUUAAAA [JR_Exclusion2_Sub009] (puzzle: Exclusion 2) | 83.5 | 38.2 | 48.4 | – | – | – |
| AAAAAACAAGGAUAUACGAAGGAUGAUUAUCUUAAUUUUUGACAUGAGGAUCACCCAUGUAGAAGGUGUUAAAA [JR_Exclusion2_Sub008] (puzzle: Exclusion 2) | 125 | 51.5 | 52.9 | – | – | – |
| AAAAAACAUGAGGAUCACCCAUGUCAGGAUAUCCGAAAAGAAAAGAAAAAGAAAAAAGGGAGAAGGGACAAAAA [April's ex-date #2] (puzzle: Exclusion 1) | 50.5 | 42 | 33 | – | – | – |
| AAAAAGCGAGGAUAUGCAUAAGGACCCGGGAGGGAAAUCAAACAUGAGGAUCACCCAUGUAGAAGGCGCAAAAA [Exclss2-III] (puzzle: Exclusion 2) | – | 18.2 | – | – | – | – |
| AAAACAAAAGGAUAUACAUGAGGAUCACCCAUGUGGCGAUAAAUCGCCGCUAAACCAUGUAGAAGGUUUGCGAA [EX3 A.2] (Eterna round: R97, puzzle: Exclusion 3) | – | – | – | 102 | 42.6 | – |
| AAAACACAUGAGGAUCACCCAUGUGAGGAUAUGUUAAUUUCGGCCAAAGCCGAAAUUAACAGAAGGCACAUAAA [JR_Exclusion1_Sub019] (puzzle: Exclusion 1) | – | 46 | – | – | – | – |
| AAAACGUCAGGAUAUACGAAAUAAAAUAAAAUAAAAUAAAAGUAGAAGGGACAUGAGGAUCACCCAUGUAAUAA [Exclusion 4 #1] (puzzle: Exclusion 4) | 43.7 | 26.6 | 36.2 | – | – | – |
| AAAACUGAAGGAUAUGCCAGGGUGAGAGCUGGUGACGUUUAACAUGAGGAUCACCCAUGUAGAAGGUCAAAACA [Usate] (puzzle: Exclusion 2) | – | 12.6 | – | – | – | – |
| AAAAGAAGUGUUAGGAUAUGUGUAAGUAGAAAGACACAGAAGGAACAUGAGGAUCACCCAUGUGGCCAAAGAAC [Vesotila] (puzzle: Brourd's mod of Exclusion 4) | 38.7 | 14.1 | 13.6 | – | – | – |
| AAAAGAGUAGGAUAUCUGACGCGAAACAUGAGGAUCACCCAUGUAGGGCGGUCCUGCUUAAGAGAAGGGCUCAAAU [Sodirira] (puzzle: Exclusion 5) | – | 88.9 | – | – | – | – |
| AAAAGGUCAGGAUAUGCUUGGCGGAUUCUGGUAUCCAAAUGACAUGAGGAUCACCCAUGUAGAAGGGACAUCAG [Maanlesoge] (Eterna round: R97, puzzle: Exclusion 2) | – | – | – | 21.8 | 20.6 | – |
| AAAAGGUGAGGAUAUUCGGCGCCGGGAAGGUUGGUGCGGAUGAAGAAGGCACAUGAGGAUCACCCAUGUAAUAA [Excls4-I] (puzzle: Exclusion 4) | – | 43.5 | – | – | – | – |
| AAAAUAAAGAUGCCUUAAAACAUGAGGAUCACCCAUGUGAGUAAGGAUAUCGGAACCAAUCGCGACGAGAAGGUACUCGCGUGU [Ceestemaat] (Eterna round: R96, puzzle: Exclusion NG 3) | – | – | – | 9.87 | 14.4 | 9.44 |
| AAAAUACAUGAGGAUCACCCAUGUAAGGAUAUACGCCUAGUACCGAUGGUACUACAAAGUAGAAGGUACAUGGC [Arma] (puzzle: Exclusion 1) | 17.1 | 12.3 | 14.1 | – | – | – |
